US20230374157A1 (SYSTIMMUNE, published 2023)

Tests used:
[1] = molecular target: T1, His-tagged human EGFR extracellular domain (expressed and purified in-house) (human, UniProt P00533 25-645); assay: BLI, antibody on AHC tips, monomeric EGFR ECD in solution, 1:1 fit
T1 construct: extracellular domain; Monomeric, in solution; also called EGFR (purified in-house); not shown: His tag

[2] = molecular target: T2, human His-tagged HER3 extracellular domain (in-house expressed) (human, UniProt P21860 20-643); assay: BLI sandwich assay, antibody held on immobilized EGFR, HER3 ECD in solution
T2 construct: extracellular domain; also called HER3 ECD (in-house expressed); not shown: His tag

[3] = molecular target: T3, biotinylated human EGFR extracellular domain (Acro EGF-H82E3) (human, UniProt P00533 25-645, biotinylated (site not stated)); assay: BLI avidity format, biotinylated EGFR ECD on SA sensors, antibody in solution, 1:1 fit
T3 construct: extracellular domain; Loaded onto streptavidin (SA) sensors; also called immobilized EGFR

[4] = molecular target: T4, His-tagged human HER3 extracellular domain (Acro ER3-H5223) (human, UniProt P21860 20-643); assay: BLI (Octet), antibody captured on AHC sensors; tandem: 100 nM EGFR 720 s, then 100 nM EGFR + 400 nM HER3 720 s, then buffer; EGFR+HER3 step
T4 construct: extracellular domain; Monomeric, in solution; not shown: His tag

[5] = molecular target: T4, His-tagged human HER3 extracellular …; assay: BLI, antibody on AHC tips, monomeric HER3 ECD in solution, 1:1 fit
[6] = molecular target: T2, human His-tagged HER3 extracellular …; assay: BLI sandwich assay, antibody held on immobilized biotinylated EGFR, 500 nM HER3 ECD in solution, 1:1 fit

B1: SI-71M1, humanized cetuximab monoclonal antibody (antibody, human IgG1, kappa, V domains shown)
VH: QVQLQQSGPGLVKPSETLSITCTVSGFSLTNYGVHWIRQAPGKGLEWLGVIWSGGNTDYNTPFTSRFTITKDNSKNQVYFKLRSVRADDTAIYYCARALTYYDYEFAYWGQGTLVTVSS
VL: EIVLTQSPSTLSVSPGERATFSCRASQSIGTNIHWYQQKPGKPPRLLIKYASESISGIPDRFSGSGSGTEFTLTISSVQSEDFAVYYCQQNNNWPTTFGPGTKLTVLR
notes: also called Hu-Cetuximab; humanized cetuximab mAb
- Kd [1]: 4.76 nM
- koff [1]: 0.0013 s⁻¹
- kon [1]: 272000 M⁻¹ s⁻¹
- binding result [2]: no binding (tested: 500 nM)
- Kd [3]: < 0.001 nM
- koff [3]: < 1e-07 s⁻¹
- kon [3]: 466000 M⁻¹ s⁻¹
- binding result [4]: no binding (tested: 400 nM)

B2: SI-71X14, bispecific tetravalent anti-EGFR x HER3 antibody (humanized cetuximab IgG with MM-111 anti-HER3 scFv at the C-terminus of each heavy chain) (bispecific antibody)
heavy: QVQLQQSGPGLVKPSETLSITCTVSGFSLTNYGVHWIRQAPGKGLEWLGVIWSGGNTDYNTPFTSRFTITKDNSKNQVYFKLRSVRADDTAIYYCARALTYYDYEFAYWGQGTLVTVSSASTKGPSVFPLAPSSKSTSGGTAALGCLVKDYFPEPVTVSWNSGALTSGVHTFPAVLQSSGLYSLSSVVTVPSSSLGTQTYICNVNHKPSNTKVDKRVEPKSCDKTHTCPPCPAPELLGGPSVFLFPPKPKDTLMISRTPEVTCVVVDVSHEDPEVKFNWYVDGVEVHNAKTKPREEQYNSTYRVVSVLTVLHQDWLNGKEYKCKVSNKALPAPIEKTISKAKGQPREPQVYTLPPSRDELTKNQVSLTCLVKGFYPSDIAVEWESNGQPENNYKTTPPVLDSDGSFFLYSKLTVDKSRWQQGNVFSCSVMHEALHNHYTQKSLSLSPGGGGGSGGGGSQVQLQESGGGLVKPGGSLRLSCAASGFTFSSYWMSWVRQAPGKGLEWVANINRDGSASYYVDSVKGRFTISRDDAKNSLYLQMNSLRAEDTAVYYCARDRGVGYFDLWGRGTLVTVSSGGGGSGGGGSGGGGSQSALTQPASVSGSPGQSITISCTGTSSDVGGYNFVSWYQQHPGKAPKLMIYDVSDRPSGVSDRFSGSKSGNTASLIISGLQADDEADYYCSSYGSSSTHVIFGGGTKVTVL
light: EIVLTQSPSTLSVSPGERATFSCRASQSIGTNIHWYQQKPGKPPRLLIKYASESISGIPDRFSGSGSGTEFTLTISSVQSEDFAVYYCQQNNNWPTTFGPGTKLTVLRTVAAPSVFIFPPSDEQLKSGTASVVCLLNNFYPREAKVQWKVDNALQSGNSQESVTEQDSKDSTYSLSSTLTLSKADYEKHKVYACEVTHQGLSSPVTKSFNRGEC
notes: VH position 85 (Kabat) is D instead of cetuximab's N
- Kd [1]: 4.61 nM
- koff [1]: 0.00122 s⁻¹
- kon [1]: 264000 M⁻¹ s⁻¹
- Kd [5]: 117 nM
- koff [5]: 0.0308 s⁻¹
- kon [5]: 265000 M⁻¹ s⁻¹
- Kd [3]: < 0.001 nM
- koff [3]: < 1e-07 s⁻¹
- kon [3]: 353000 M⁻¹ s⁻¹
- Kd [6]: 922 nM
- koff [6]: 0.07 s⁻¹
- kon [6]: 75900 M⁻¹ s⁻¹

B3: SI-1C5 (nimotuzumab-based anti-EGFR monoclonal antibody) (antibody, V domains shown)
VH: QVQLQQSGAEVKKPGSSVKVSCKASGYTFTNYYIYWVRQAPGQGLEWIGGINPTSGGSNFNEKFKTRVTITVDESTNTAYMELSSLRSEDTAFYFCARQGLWFDSDGRGFDFWGQGSTVTVSS
VL: DIQMTQSPSSLSASVGDRVTITCRSSQNIVHSNGNTYLDWYQQTPGKAPKLLIYKVSNRFSGVPSRFSGSGSGTDFTFTISSLQPEDIATYYCFQYSHVPWTFGQGTKLQITR
- Kd [1]: 15.8 nM
- koff [1]: 0.00178 s⁻¹
- kon [1]: 113000 M⁻¹ s⁻¹
